Biological target: BIQ, fluorescent reporter containing an IQ domain sequence derived from neuromodulin (UniProt P17677)
Assay: other fluorescence titration

Chain of BIQ, fluorescent reporter containing an IQ domain sequence derived from neuromodulin (P17677 31-60): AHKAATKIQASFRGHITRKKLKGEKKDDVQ

“calmodulin (native vertebrate CaM) (from UniProt P0DP23 1-149) (natural protein)” gave a stoichiometry N of 1.
